Where no end group is shown, it is not given here.
Target: T1, Aβ monomers on the SPR chip: biotinylated Aβ 11–28 (Homo sapiens (from His13), UniProt P05067, also: biotin, position not given here)
T1 construct: amyloid-β peptide, residues 11-28; the methods name only 11–28; also called monomer Aβ chips
T1 chain: EVHHQKLVFFAEDVGSNK
Assay: SPR; BIAcore T200, single-cycle kinetics; biotinylated Aβ (11–28 or oligomeric 1–42) captured on streptavidin-coupled CM5 chip (100–200 RU); antibody as analyte 0.8–500 nM in HBS-P pH 7.4, 0.15 M NaCl; one-to-one Langmuir model
Conditions: both partners purified

Kd: 3 to 5 nM
B1: Crenezumab, fully humanized anti-Aβ monoclonal IgG4 (antibody, V domains shown)
VH: EVQLVESGGGLVQPGGSLRLSCAASGFTFSSYGMSWVRQAPGKGLELVASINSNGGSTYYPDSVKGRFTISRDNAKNSLYLQMNSLRAEDTAVYYCASGDYWGQGTTVTVSS
VL: DIVMTQSPLSLPVTPGEPASISCRSSQSLVYSNGDTYLHWYLQKPGQSPQLLIYKVSNRFSGVPDRFSGSGSGTDFTLKISRVEAEDVGVYYCSQSTHVPWTFGQGTKVEIK
notes: crenezumab VH: as the VH of the heavy chain of m1 (PDB 5KNA / 5KMV) but without the T108L change; IgG4 heavy chain constant region; as the light chain of m1 (unaltered crenezumab light chain); IgG4; also called full-length IgG4; copies: 2 + 2
